T1: Human FVIIa (human, UniProt P08709 61-466)
T1 construct: Bought protein; also called factor VIIa
T1 sequence (looked up): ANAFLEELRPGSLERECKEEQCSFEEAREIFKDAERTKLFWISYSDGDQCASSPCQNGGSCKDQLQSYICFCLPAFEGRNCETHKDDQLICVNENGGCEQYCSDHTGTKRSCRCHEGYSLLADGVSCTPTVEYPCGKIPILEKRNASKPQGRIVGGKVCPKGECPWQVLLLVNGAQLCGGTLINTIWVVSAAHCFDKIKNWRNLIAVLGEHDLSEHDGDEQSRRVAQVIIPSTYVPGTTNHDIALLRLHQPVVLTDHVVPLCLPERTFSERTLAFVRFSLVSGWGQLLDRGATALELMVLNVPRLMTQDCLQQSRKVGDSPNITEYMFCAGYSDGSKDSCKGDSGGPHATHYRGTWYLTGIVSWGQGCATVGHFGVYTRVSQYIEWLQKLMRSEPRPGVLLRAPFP

B1: scFv(TF)3e10-TMi456 fusion protein (other)
chain: EMAQVNLRESGGTLVQPGGSLRLSCAASGFSFTDAWMSWVRQAPGKELEWVSSISGSGGSTYYAGSVKGRFTISRDNSKNTLYLQMNSLRAEDTAVYYCARVLSLTDYYWYGMDVWGQGTLVTVSAGGGGSGAPNFMLTQPHSVSASPGKTVTISCTRSSGSVASYYVQWYQQRPGSSPTTVIYEDNHRPSGVPDRFSGSIDTSSNSASLTISGLKTEDEADYYCQSYDSNNLVVFGGGTKLTVLGAAAGGGGSGGGGSGGGGSVEPVDPCFRANCEYQCQPLNQTSYLCVCAEGFAPIPHEPHRCQMFCNQTACPADCDPNTQASCECPEGYILDDGFICTDIDECENGGFCSGVCHNLPGTFECICGPDSALAGQIGTDCAAAGAPVPYPDPLEPRAA
B2: scFV(TF)3e10 (dimer) (scFv)
scFv: EMAQVNLRESGGTLVQPGGSLRLSCAASGFSFTDAWMSWVRQAPGKELEWVSSISGSGGSTYYAGSVKGRFTISRDNSKNTLYLQMNSLRAEDTAVYYCARVLSLTDYYWYGMDVWGQGTLVTVSAGGGGSGAPNFMLTQPHSVSASPGKTVTISCTRSSGSVASYYVQWYQQRPGSSPTTVIYEDNHRPSGVPDRFSGSIDTSSNSASLTISGLKTEDEADYYCQSYDSNNLVVFGGGTKLTVLGAAAGAPVPYPDPLEPRAA
B3: single chain anti-TF antibody scFv(TF)3e10 (scFv)
scFv: B2 scFv
notes: Human scFv from phage library HuPhaBL3
B4: recombinant human soluble tissue factor (receptor, UniProt P13726 33-251, looked up)
chain: SGTTNTVAAYNLTWKSTNFKTILEWEPKPVNQVYTVQISTKSGDWKSKCFYTTDTECDLTDEIVKDVKQTYLARVFSYPAGNVESTGSAGEPLYENSPEFTPYLETNLGQPTIQSFEQVGTKVNVTVEDERTLVRRNNTFLSLRDVFGKDLIYTLYYWKSSSSGKKTAKTNTNEFLIDVDKGENYCFSVQAVIPSRTVNRKSTDSPVECMGQEKGEFRE
notes: extracellular domain; also called sTF; soluble TF

Experiments:
[1] = target: full length TF in phospholipid vesicles (human, UniProt P13726 33-295); experiment: cell-based or functional assay
[2] = target: T2, sTF/FVIIa complex (preformed from sTF and a 2.3 fold molar excess of FVIIai) (human, UniProt P13726 33-251; P08709 61-466, limits assumed, active site inhibited (FVIIai); the way of inhibition is not stated for this batch); experiment: isothermal titration calorimetry
T2 construct: Complex used in the microcalorimeter cell; complete complexing of sTF verified by size exclusion chromatography; also called sTF/VIIa complex; FVIIa/TF complex
Description: (§1) FIG. 3. […] Isothermal titration calorimetry was performed using a MicroCal VP-ITC instrument. […] Data analysis was done using MicroCal Origin software. The data was fit to a single binding site.

[3] = target: T2, sTF/FVIIa complex (preformed from sTF …); experiment: isothermal titration calorimetry (MicroCal VP-ITC), 1.2 uM complex in the cell, 65 uM scFv in the syringe; microcalorimetry, TF/FVIIa complex as target
Description: as §1

[4] = target: B4; experiment: isothermal titration calorimetry (MicroCal VP-ITC), 141 µM scFv(TF)3e10 in the syringe, 10 µM sTF in the cell, OneSites model
Description: as §1

[5] = target: B4; experiment: isothermal titration calorimetry (MicroCal VP-ITC), 10 uM sTF in the cell, 141 uM scFv in the syringe; microcalorimetry, free sTF as target
Description: as §1

[6] = target: T2, sTF/FVIIa complex (preformed from sTF …); experiment: isothermal titration calorimetry (MicroCal VP-ITC), 65 µM scFv(TF)3e10 in the syringe, 1.2 µM preformed sTF/FVIIai complex in the cell, OneSites model
Description: as §1

[7] = target: B4; experiment: apparent KD from the sTF/FVIIa chromogenic activation assay (3 nM sTF, 2 nM FVIIa, antibody titrated, 4-parameter fit); sTF/FVIIa chromogenic assay, apparent KD
Human FVIIa = target: T1, Human FVIIa; experiment: sTF/FVIIa activation assay: sTF titrated against 2 nM FVIIa without antibody, rate of cleavage of chromogenic substrate S-2266, apparent KD from a 4-parameter fit

## B1
[1]
  IC50 of FX activation by the FVIIa/TF complex: 0.5 nM
  TM cofactor activity (protein C activation assay on TF-rich surface): > 5 fold

## B2
[1]
  IC50 for inhibition in the FX activation assay: 0.44 nM

## B3
[2]
  fold higher affinity than for free sTF: 20 fold
[3]
  Kd: 33 nM
[4]
  N: 0.878
  ΔH: -21.9 kcal/mol
  ΔS: -43.6
[5]
  Kd: 600 nM
[6]
  N: 1.14
  ΔH: -28.6 kcal/mol
  ΔS: -60
[7]
  Kd: 65.4 nM

## B4
Human FVIIa
  Kd: 13 nM

From patent US20040063632A1 (Bayer, published 2004)
